Reference: the supplement of paper PMC9170038

Test system: MS2 coat protein
Test: apparent KD of MS2 coat protein; designed switch direction (-1 OFF switch, 1 ON switch): -1; higher = weaker reporter binding
How it was run: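 Apparent KD, taken as the median over clusters for each design, was obtained by curve-fitting normalised cluster fluorescence. Designed RNA switches had been transcribed on Illumina chips by stalled E. coli RNA polymerase and titrated with SNAP-549-labelled MS2 coat protein, doubling from 0.7 or 1.5 nM to 3 µM.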

[1] = input ligand: microRNA oligo, concentration not stated
[2] = Eterna round: R95, input ligand: FMN 200 uM
[3] = Eterna round: R95, input ligand: microRNA oligo, concentration not stated
[4] = Eterna round: R95, input ligand: none

| Sequence | apparent KD of MS2 coat protein (input ligand: FMN 200 uM) [nM] | apparent KD of MS2 coat protein [1] [nM] | apparent KD of MS2 coat protein (input ligand: none) [nM] | apparent KD of MS2 coat protein [2] [nM] | apparent KD of MS2 coat protein [3] [nM] | apparent KD of MS2 coat protein [4] [nM] |
| --- | --- | --- | --- | --- | --- | --- |
| AGCUAGUCAGGAUAUACGCAAACGAACGAAGCAGUGAAGGGACAUGAGGAUCACCCAUGUAGAAGGGACUAGCA [Diamond 30] (Eterna round: R96, puzzle: Exclusion 2) | 121 | 17.4 | 24.9 |  |  |  |
| GCUGGUCGAGGAUAUACAUGAGGAUCACCCAUGUGAUUAGCAGUCCUCGGACUGCAAUGUAGAAGGCGACCAGC [E3/2-A1] (Eterna round: R97, puzzle: Exclusion 3) | 620 |  | 439 |  |  |  |
| UCUGGUCAAGGAUAUACAAUCGUGCUUCGGCACGUAAGAUCACAUGAGGAUCACCCAUGUAGAAGGUGACCAGA [E2/1-C3] (Eterna round: R97, puzzle: Exclusion 2) | 449 |  | 43.9 |  |  |  |
| AACUUCUGAGGAUAUACAUAGAUUUACAUGAGGAUCACCCAUGUUCCUCUAUGUAUAAAUGUAGAAGGCAGAAGAG [Mat - Exclusion 5 - JL Mod - D63] (Eterna round: R97, puzzle: Exclusion 5) | 71.3 |  | 17.2 |  |  |  |
| UCGUUCCGUGUAGGAUAUUGGCCUCCCUUGGGCCGAGAAGGACAUGAGGAUCACCCAUGUAUGUUAUUAUCGCGCGUGGCGCAU [Design 88] (Eterna round: R96, puzzle: Exclusion NG 1) | 126 | 13.8 | 18.4 |  |  |  |
| ACUUAUAGAGGAUAUACAGAUUAUUACAUGAGGAUCACCCAUGUUCUUCAAUGUAUAUAUGUAGAAGGCUAAGGAU [Mat - Exclusion 5 - JL Mod - D8] (Eterna round: R97, puzzle: Exclusion 5) | 192 |  | 75.9 |  |  |  |
| AAUGCAAGCAAGAUCCUAAACAUGAGGAUCACCCAUGUGCUCGUCUUAUAAAGUACUAUCACGAAAGUGAUAGUACA [Sensor 3, v1 - 64] (puzzle: Sensor v3, turn-off variant 1) |  |  |  | 515 | 132 | 744 |
| GUGUGCUGAGGAUAUACAGAGGAAGAUAAGAUAAGAUAAUGACAUGAGGAUCACCCAUGUAGAAGGCAGAGUGU [Excluse me!! 15 - Jieux - Exclusion 2] (puzzle: Exclusion 2) |  |  |  |  | 30.5 |  |
| UUUUGAAAGUGAGGAUAUGACAUGAGGAUCACCCAUGUAAAGGGAGUUGACUAUAUAGCAAGAUAUCAGAAGGCACAAAUGUUU [JR_ExcNG2_Sub003] (Eterna round: R96, puzzle: Exclusion NG 2) | 367 | 341 | 645 |  |  |  |
| AGCGUGGCUCAGGAUAUCAGCCCUGUGGAGUUCUGAGAAGGGAGCACAUGAGGAUCACCCAUGUGAAAGGGUAC [Useratarin] (puzzle: Exclusion 6) |  |  |  | 103 | 24.7 | 29.7 |
| UAAAAUUCGCGAGGAUAUGCGACCUAAUGGGAGGAUUGUCACAUGAGGAUCACCCAUGUCAGUCAGCAGAAGGCGCACCUGGUU [Anedmaon] (Eterna round: R96, puzzle: Exclusion NG 2) | 628 | 116 | 99.6 |  |  |  |
| GAUUCAUAUGACUUUCUAUACAUGAGGAUCACCCAUGUUUGUUUUUUUUGUUUUUCGCUUUUUAGUCGUCUUAUUAU [Gravy 3] (Eterna round: R97, puzzle: Sensor, turn-off variant 1) | 19.6 |  | 19 |  |  |  |
| UAAUAUCUGCAGGAUAUCGGUGUAGCACGCGUAUGAGAAGGGCAGACAUGAGGAUCACCCAUGUAUAGGGUCCG [BotMod 1 - Jieux - Exclusion 6] (Eterna round: R97, puzzle: Exclusion 6) | 246 |  | 49.4 |  |  |  |
| AAAAAACAAGGAUAUACGCAGGAGGGUUGUCUUAAUUUUUGACAUGAGGAUCACCCAUGUAGAAGGUGUUAAAA [JR_Exclusion2_Sub013] (puzzle: Exclusion 2) |  |  |  |  | 220 |  |
| GACCAACGGGUUUACCUUUACAUGAGGAUCACCCAUGUCGCAAGCUUUUUCUCGGGUCCAAUCUUAUAAAUAUUAAU [Legedi] (puzzle: Sensor v3, turn-off variant 1) |  |  |  | 144 | 314 | 179 |
| AGCUGUGGCCGAGGAUAUCCAGCCUUAAAUACCGACGUAUAGUCGGACAUGAGGAUCACCCAUGUGGAGAAGGCGGUCUCAGCA [Eli eng2 - 045] (Eterna round: R96, puzzle: Exclusion NG 2) | 126 | 36.4 | 43.6 |  |  |  |
